Experiment [1] addresses endogenous Protein Kinase A catalytic subunit (PKA-Cα) of COS-1 cells. Nature of the experiment: co-immunoprecipitation (IP: V5 antibody), western blot band intensity quantified with ImageJ. Particulars: COS-1 cells expressing GRTH-V5, parent: est. 1.1, read off a plot. (In western blotting, separated proteins are transferred to a membrane and probed.)
The target is the same in experiment [2]. As to the kind of experiment: co-immunoprecipitation (IP: PKA-Cα antibody), western blot band intensity quantified with ImageJ. Particulars: COS-1 cells expressing GRTH-V5, parent: est. 1.1, read off a plot.

In the case of “Gonadotropin Regulated Testicular Helicase (GRTH/DDX25), wild type, V5-His tagged (from UniProt Q9UHL0) E165A”, the response (Arbitrary units) in experiment [1] and in experiment [2] was 0.88 each time.

As to “Gonadotropin Regulated Testicular Helicase (GRTH/DDX25), wild type, V5-His tagged (from UniProt Q9UHL0) E165A; K240A”, the response (Arbitrary units) in experiment [1] is 0.68; in experiment [2] it was 0.76.

With “Gonadotropin Regulated Testicular Helicase (GRTH/DDX25), wild type, V5-His tagged (from UniProt Q9UHL0) T239A”, the response (Arbitrary units) in experiment [1] and in experiment [2] was 0.34 in each case.

The record behind these values is PMC6491591.
